In patent US20240272170A1 (QUANTUM SI, published 2024):
No end group written: not given here. *: point of attachment. FITC = O=C1OC2(c3ccc(O)cc3Oc3cc(O)ccc32)c2ccc(NC(=S)*)cc21

T1: RA peptide (XAKLDEESILKQK-FITC, X = R)
T1 construct: also called peptide with N-terminal arginine
T1 peptide: RAKLDEESILKQK(FITC)

T2: target peptide Arg-Ala-Lys-Leu (RAKL)
T2 peptide: RAKL

T3: RL peptide (Octet assay of PS621 variants)
T3 construct: RXKLDEESILKQK with X = L
T3 peptide: RLKLDEESILKQK

T4: RE peptide (Octet assay of PS621 variants)
T4 construct: RXKLDEESILKQK with X = E
T4 peptide: REKLDEESILKQK

T5: RS peptide (Octet assay of PS621 variants)
T5 construct: RXKLDEESILKQK with X = S
T5 peptide: RSKLDEESILKQK

T6: HA peptide (Octet assay of PS621 variants)
T6 construct: XAKLDEESILKQK with X = H
T6 peptide: HAKLDEESILKQK

T7: KA peptide (Octet assay of PS621 variants)
T7 construct: XAKLDEESILKQK with X = K
T7 peptide: KAKLDEESILKQK


Key:
[1] = biological target: T1, RA peptide (XAKLDEESILKQK-FITC, X = R); experiment: fluorescence polarization titration, 20 C
Protocol: (§1) Binding affinity was measured by polarization using a labeled peptide. The polarization response and total intensity measurements were carried out at 20° C. on a microplate fluorometer with 480 nm excitation and 530 nm emission. […] Multiple analyses were performed at increasing recognizer concentration at a fixed concentration of a target peptide to obtain a titration curve. An equilibrium polarization response at each concentration was plotted and fit to calculate the KD.
(§2) Fluorescence polarization assays were performed with all candidates, and single point binding responses were measured at a fixed concentration of the binders (FIG. 13A). […] We carried out multiple polarization binding titration analysis at increasing concentration of binder protein, and the Kds were determined from the titration curves (FIG. 13B).

[2] = biological target: T2, target peptide Arg-Ala-Lys-Leu (RAKL); experiment: purified protein:peptide complex, X-ray crystallography
[3] = biological target: T1, RA peptide (XAKLDEESILKQK-FITC, X = R); experiment: fluorescence polarization titration, PS1122 0-5000 nM
Protocol: as §1, §2

[4] = biological target: T8, RA peptide (Octet assay of PS621 variants); experiment: Octet (BLI), 30 C
T8 construct: X… with X = R
Description: (§3) Peptides of the sequence RXKLDEESILKQK (SEQ ID NO: 1076) were also used to evaluate the penultimate residue effect.

[5] = biological target: T3, RL peptide (Octet assay of PS621 …); experiment: Octet (BLI), 30 C
Description: as §3

[6] = biological target: T4, RE peptide (Octet assay of PS621 …); experiment: Octet (BLI), 30 C
Description: as §3

[7] = biological target: T9, RQ peptide (Octet assay of PS621 variants); experiment: Octet (BLI), 30 C
T9 construct: RX… with X = Q
Description: as §3

[8] = biological target: T5, RS peptide (Octet assay of PS621 …); experiment: Octet (BLI), 30 C
Description: as §3

[9] = biological target: T10, RR peptide (Octet assay of PS621 variants); experiment: Octet (BLI), 30 C
T10 construct: RX… with X = R
Description: as §3

[10] = biological target: T11, RF peptide (Octet assay of PS621 variants); experiment: Octet (BLI), 30 C
T11 construct: RX… with X = F
Description: as §3

[11] = biological target: T6, HA peptide (Octet assay of PS621 …); experiment: Octet (BLI), 30 C
[12] = biological target: T7, KA peptide (Octet assay of PS621 …); experiment: Octet (BLI), 30 C
[13] = biological target: RA Peptide (stopped-flow); experiment: stopped-flow rapid kinetics
[14] = biological target: RL Peptide (stopped-flow); experiment: stopped-flow rapid kinetics
[15] = biological target: T12, HL Peptide (stopped-flow); experiment: stopped-flow rapid kinetics
T12 construct: the text around it speaks of HA peptide

[16] = biological target: peptide with N-terminal AK (lysine peptide of Example 12); experiment: single-molecule dynamic sequencing on chip
[17] = biological target: peptide with N-terminal AK{acetyl} (acetyl-lysine peptide of Example 12); experiment: single-molecule dynamic sequencing on chip

Row | Kd [1] | binding result [2] | Kd [3] | Octet response [4] | Octet response [5] | Octet response [6] | Octet response [7] | Octet response [8] | Octet response [9] | Octet response [10] | Octet response [11] | Octet response [12] | koff [13] | koff [14] | koff [15] | RS mean pulse duration (PD) [16] | RS mean pulse duration (PD) [17] | Binder
1 | 70 nM | binds | 70 nM | – | – | – | – | – | – | – | – | – | – | – | – | – | – | PS1122 (designed binder, PS621 with T47L, I63E, E70T; on chip labeled with streptavidin-tetraCy3) MHSKFSHAGRICGAKFKVGEPIYRCKECSFDDTCVLCVNCFNPKDHLGHHVYTTICTEFNNGECDCGDKTAWNHTLFCKAEEG
2 | – | – | – | 9.3 | 10.2 | 5.8 | 7.4 | 7.1 | 6.3 | 8.4 | 2 | 5.2 | 61.8 s⁻¹ | 17.7 s⁻¹ | – | – | – | PS621 (other, UBR protein (UBR-box) parent of PS1101-PS1122) MHSKFSHAGRICGAKFKVGEPIYRCKECSFDDTCVLCVNCFNPKDHTGHHVYTTICTEFNNGICDCGDKEAWNHTLFCKAEEG
3 | – | – | – | 10.8 | 11.8 | 7.6 | 9.1 | 8.5 | 6.7 | 10 | 3 | 6.5 | – | 14.4 s⁻¹ | 40.2 s⁻¹ | – | – | PS1115 (designed binder, Variant of PS621) MHSKFSHAGRICGAKFKVGEPIYRCKECSFDDTCVLCVNCFNPKDHRGHHVYTTICTERNNGICDCGDKEAWNHELFCKAEEG
4 | – | – | – | – | – | – | – | – | – | – | – | – | – | – | – | 1.3 s | 2.2 s | PS1165 (other, alanine recognizer) MGLENSLETLRFSISNLSMQTHAARMRTFMYWPSSVPVQPEQLASAGFYYVGRNDDVKCFCCDGGLRCWESGDDPWVEHAKWFPRCEFLIRMKGQEFVDEIQGRYPHLLEQLLSG
